Data reported in patent US7906485B2, “Erythropoietin receptor peptide formulations and uses” (Affymax, Inc., priority 2005, dated 2011).
Bridge positions count the residues as written; N and C are the ends. Square brackets hold non-standard residues; d marks the D form. Ends that are not written are not given here. 1Nal = N[C@@H](Cc1cccc2ccccc12)C(=O)O; Sar = CNCC(=O)O

Key:
[1] = system: human, bone marrow derived CD34+ cells; assay: C/BFU-e assay (erythroid colonies); type: cell-based
Experimental: EPO-R signaling stimulates the differentiation of bone marrow stem cells into proliferating red blood cell precursors. This assay measures the ability of test peptides to stimulate the proliferation and differentiation of red blood cell precursors from primary human bone marrow pluripotent stem cells.
For this assay, serial dilutions of test peptide are made in IMDM medium (Gibco) supplemented with 10% FBS (Hyclone). These serial dilutions, or positive control EPO peptide, are then added to methylcellulose to give a final volume of 1.5 mL. The methylcellulose and peptide mixture is then vortexed thoroughly. Aliquots (100,000 cells/mL) of human, bone marrow derived CD34+ cells (Poietics/Cambrex) are thawed. The thawed cells are gently added to 0.1 mL of 1 mg/ml DNAse (Stem Cells) in a 50 mL tube. Next, 40-50 mL IMDM medium is added gently to cells: the medium is added drop by drop along the side of the 50 mL tube for the first 10 mL, and then the remaining volume of medium is slowly dispensed along the side of the tube. The cells are then spun at 900 rpm for 20 min, and the media removed carefully by gentle aspiration. The cells are resuspended in 1 ml of IMDM medium and the cell density per mL is counted on hemacytometer slide (10 μL aliquot of cell suspension on slide, and cell density is the average count×10,000 cells/ml). The cells are then diluted in IMDM medium to a cell density of 15,000 cells/mL. A 100 μL of diluted cells is then added to each 1.5 mL methyl cellulose plus peptide sample (final cell concentration in assay media is 1000 cells/mL), and the mixture is vortexed. Allow the bubbles in the mixture to disappear, and then aspirate 1 mL using blunt-end needle. Add 0.25 mL aspirated mixture from each sample into each of 4 wells of a 24-well plate (Falcon brand). Incubate the plated mixtures at 37° C. under 5% CO2 in a humid incubator for 14 days. Score for the presence of erythroid colonies using a phase microscope (5×-10× objective, final magnification of 100×). The concentration of test peptide at which the number of formed colonies is 90% of maximum, relative to that observed with the EPO positive control, is recorded as the EC90 [See Table 2: C/BFU-e EC90].

[2] = Phase 1 study in normal healthy volunteers: pharmacokinetics; type: in vivo, human
From the text: (§1) Peptide I has been tested in […] in one Phase 1 study. This first-in-human study with Peptide I was a randomized, double-blind, placebo-controlled, single-dose, IV, escalating dose, safety and tolerability trial. The primary objectives of the study were to evaluate the safety and pharmacokinetics of Peptide I, and to establish a pharmacologically active dose (PAD). Cohorts of seven male volunteers were scheduled to receive single doses of Peptide I or placebo in a 5:2 ratio. Cohorts were to be added at increasing dose levels until a PAD, as determined by an increase in hemoglobin from baseline values, was observed, at which point the dose level identified as the PAD would be repeated in another cohort of volunteers.
(§2) The study was initiated in four cohorts were enrolled in a consecutive manner at Peptide I doses of 0.025, 0.05, 0.1 mg/kg, and […], respectively (single dose per cohort). […] As such, the study was terminated.
In the 0.025 mg/kg dose group, Peptide I concentration peaked between 5 and 15 minutes, while tmax approached 1 hour for the 0.1 mg/kg dose.

erythropoiesis [3] = assay: Pharmacology studies in animals (erythropoiesis); type: in vivo, mice, rats, dogs, rabbits and monkeys
[4] = Phase 1 study in normal healthy volunteers: safety; type: in vivo, human
From the text: as §1, §2

[5] = Pharmacokinetic studies in rats; type: in vivo
[6] = Pharmacokinetic studies in rats, dogs and monkeys (general statements); type: in vivo
[7] = Pharmacokinetic studies in dogs; type: in vivo
erythropoiesis [8] = assay: Phase 1 study in normal healthy volunteers: pharmacodynamics; type: in vivo, human
From the text: as §1, §2

[9] = biological target: T1, Recombinant Human EPO R/Fc Chimera (human, UniProt P19235 25-250); assay: radioligand competition; competitor: 125I-EPO; EPO R/Fc chimera 100 pg/tube, Protein-G Sepharose pull-down, gamma counting
T1 construct: extracellular domain; Bought: R&D Systems, catalog number 963-ER; also called recombinant EPOr extracellular domain fused to the Fc portion of human IgG1; recombinant erythropoietin receptor; not shown: Fc portion of human IgG1
T1 sequence (looked up): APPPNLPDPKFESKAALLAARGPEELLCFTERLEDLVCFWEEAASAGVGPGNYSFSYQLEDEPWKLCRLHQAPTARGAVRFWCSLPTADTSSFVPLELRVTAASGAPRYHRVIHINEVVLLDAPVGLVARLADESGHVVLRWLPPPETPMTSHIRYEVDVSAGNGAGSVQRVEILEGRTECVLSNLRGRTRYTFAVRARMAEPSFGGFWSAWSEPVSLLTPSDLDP

[10] = biological target: T2, recombinant EPO-R produced in Chinese Hamster Ovary cells as a fusion protein to a portion of the human … (human, UniProt P19235 25-250); assay: AlphaQuest bead proximity competition; competitor: biotinylated tracer peptide SEQ ID NO: 4 (30 nM) on streptavidin donor beads, EPO-R fusion on acceptor beads
T2 sequence (looked up): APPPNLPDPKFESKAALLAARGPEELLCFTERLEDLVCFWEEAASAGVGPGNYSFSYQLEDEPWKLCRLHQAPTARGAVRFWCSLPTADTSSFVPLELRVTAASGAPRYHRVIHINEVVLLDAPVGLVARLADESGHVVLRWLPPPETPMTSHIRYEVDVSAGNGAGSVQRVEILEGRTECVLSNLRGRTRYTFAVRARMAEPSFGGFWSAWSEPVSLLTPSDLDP

[11] = five-sixth nephrectomy rats, IV 9.87 mg/kg

With “Peptide IV: peptide dimer of SEQ ID NO: 1 monomers (AcG)GLYACHMGPIT(1-nal)VCQPLRK (Ac-GGLYACHMGPIT[1Nal]VCQPLRK; disulfide 6-15 (inferred); not fully specified (residue 1); printed as (AcG)GLYACHMGPIT(1-nal)VCQPLRK; also: homodimer joined through a branched tertiary amide linker on the Lys20 side chain, PEG carried on the linker)” as the molecule, how does the EC90 ([1]; Table 4) read?
Its EC90 is 6.2 nM.

Which “Plasma clearance, geometric mean” value ([2]; 0.025 mg/kg) does the source give for “peptide dimer of SEQ ID NO: 2 monomers (AcG)GLYACHMGPIT(1-nal)VCQPLR(MeG)K; a fully synthetic EPO receptor agonist (Ac-GGLYACHMGPIT[1Nal]VCQPLR[Sar]K; disulfide 6-15 (inferred); not fully specified (residue 1); printed as (AcG)GLYACHMGPIT(1-nal)VCQPLR(MeG)K; also: homodimer joined through a branched tertiary amide linker on the Lys21 side chain, PEG carried on the linker) [Peptide I]” here?
Its value is 78.0 mL/h.

And the “Volume of distribution, mean” value ([2]; 0.025 mg/kg)?
The value was 2165 mL.

And the “half-life, mean” value ([2]; 0.025 mg/kg)?
The value was 19.2 h.

And the “half-life, range” value ([2]; 0.025 mg/kg)?
Its value is 16.7 to 21.9 h.

And the “plasma concentrations quantifiable (>25 ng/mL) up to” value (“plasma concentrations quantifiable” below) ([2]; 0.025 mg/kg)?
The value was “up to 96 hours”.

What about the “Plasma clearance, geometric mean” value ([2]; 0.05 mg/kg) of the same molecule?
The value was 70.7 mL/h.

And the “Volume of distribution, mean” value ([2]; 0.05 mg/kg)?
The value was 1903 mL.

What about the “half-life, mean” value ([2]; 0.05 mg/kg) of the same molecule?
The value was 18.7 h.

What about the “half-life, range” value ([2]; 0.05 mg/kg) of the same molecule?
The value was 15.3 to 25.1 h.

What about the “plasma concentrations quantifiable” value ([2]; 0.05 mg/kg) of the same molecule?
The value was no more than 5 days.

And the “Plasma clearance, geometric mean” value ([2]; 0.1 mg/kg)?
The value was 59.2 mL/h.

What about the “Volume of distribution, mean” value ([2]; 0.1 mg/kg) of the same molecule?
Its value is 2010 mL.

What about the “half-life, mean” value ([2]; 0.1 mg/kg) of the same molecule?
The value was 23.5 h.

What about the “half-life, range” value ([2]; 0.1 mg/kg) of the same molecule?
The value was 17.7 to 33.1 h.

What about the “plasma concentrations quantifiable” value ([2]; 0.1 mg/kg) of the same molecule?
Its value is no more than 7 days.

What about the tmax ([2]; 0.1 mg/kg) of the same molecule?
Its tmax is roughly 1 h.

What about the “AUC(0-infinity) relationship with dose” value ([2]; dose normalized, ANOVA) of the same molecule?
Its value is “non-linearity at the highest dose”.

What about the “Cmax relationship with dose” value ([2]; dose normalized, ANOVA) of the same molecule?
The value was “linear relationship with dose”.

What about the “plasma concentration at which metabolic/elimination processes saturate” value ([2]; human, in vivo) of the same molecule?
The value was greater than 0.4 µg/mL.

And the EC90 ([1]; Table 6)?
The EC90 was 3 nM.

And the “rise in reticulocytes and RBCs as measured by hemoglobin levels” value (erythropoiesis [3]; rats and monkeys)?
The value was “dose proportional”.

And the stimulation of erythropoiesis (erythropoiesis [3]; single or repeat dose, mice, rats (normocythemic and nephrectomized), dogs, rabbits, monkeys)?
Its stimulation of erythropoiesis is “potent stimulator of erythropoiesis with dose-dependent activity”.

What about the “number of adverse events” value ([4]; Peptide I group) of the same molecule?
Its value is 22.

What about the “AEs considered probably not related to the study drug” value ([4]; Peptide I recipients) of the same molecule?
The value was 15/22.

And the “Serious Adverse Events or withdrawals due to an AE” value ([4]; human, in vivo)?
Its value is “no Serious Adverse Events (SAEs) or withdrawals from the study due to an AE”.

What about the “changes in vital signs, ECGs or laboratory values” ([4]; human, in vivo) of the same molecule?
The value was “no clinically significant changes”.

And the “subjects who developed antibodies specific to Peptide I” value ([4]; human, in vivo)?
Its value is “None”.

And the “overall safety and tolerability” value ([4]; single IV doses of 0.025, 0.05 or 0.1 mg/kg)?
Its value is “safe and well tolerated”.

What about the abdominal pain ([4]; subjects dosed with Peptide I) of the same molecule?
The abdominal pain was 10.0%.

And the headache ([4]; subjects dosed with Peptide I)?
The headache was 20.0%.

What about the nasopharyngitis ([4]; subjects dosed with Peptide I) of the same molecule?
The nasopharyngitis was 10.0%.

And the nausea ([4]; subjects dosed with Peptide I)?
The nausea was 10.0%.

And the “subjects who experienced adverse events” value ([4]; subjects receiving Peptide I)?
Its value is 11 of 20.

And the clearance [5, 11]?
Its clearance is 0.763 mL/h/kg.

What about the t1/2 [5, 11] of the same molecule?
The t1/2 was “approximately 48 hours”.

And the clearance ([5]; normocythemic rats)?
Its clearance is 1.44 mL/h/kg.

And the “Elimination half life (t1/2)” value ([5]; rats)?
Its value is 21.5 to 30.7 h.

What about the plasma persistence ([6]; in comparison to currently marketed rHuEPO products) of the same molecule?
The plasma persistence was “sustained plasma persistence”.

What about the Biodistribution ([6]; in vivo) of the same molecule?
Its Biodistribution is “primarily to the plasma fraction”.

And the “Elimination half life (t1/2)” value [7]?
The value was 73.7 h.

What about the “average hemoglobin levels at Day 42” value (erythropoiesis [8]; 0.1 mg/kg) of the same molecule?
The value was “returned to baseline”.

What about the “average maximum increase from baseline in hemoglobin” value (erythropoiesis [8]; 0.1 mg/kg, 10 recipients) of the same molecule?
Its value is 1.36 ± 0.39 g/dL.

What about the “difference in change from baseline hemoglobin versus placebo” value (erythropoiesis [8]; 0.1 mg/kg, at Day 42 as throughout the study) of the same molecule?
The value was no less than 0.5 g/dL.

What about the “time of maximum reticulocyte counts postdose” value (erythropoiesis [8]; all dose cohorts) of the same molecule?
Its value is “approximately 7 days”.

And the “hemoglobin response and change from baseline (mean and maximum)” value (erythropoiesis [8]; over 28 days post-dose)?
The value was “dose-dependent increases”.

And the “Reticulocyte count (absolute number and percent)” value (erythropoiesis [8]; single IV 0.025, 0.05, 0.1 mg/kg)?
The value was “dose-dependent increase”.

And the “PAD associated with at least a 1.0 g/dL increase in hemoglobin” value (erythropoiesis [8]; single IV dose, NHV)?
The value was 0.1 mg/kg.

What about the “Serum EPO levels” value (erythropoiesis [8]; with increasing dose) of the same molecule?
Its value is “transiently decreased”.

Which EC90 ([1]; Table 2) does the source give for “peptide dimer of SEQ ID NO: 3 monomers (AcG)GLYACHMGPIT(1-nal)VCQPLR(MeG) [Peptide III] (Ac-GGLYACHMGPIT[1Nal]VCQPLR[Sar]; disulfide 6-15 (inferred); not fully specified (residue 1); printed as (AcG)GLYACHMGPIT(1-nal)VCQPLR(MeG); also: homodimer, C-termini joined to the alpha- and epsilon-amino groups of a lysine linker, spacer and PEG on the linker)” here?
Its EC90 is 2.7 nM.

With “peptide dimer of SEQ ID NO: 3 monomers (AcG)GLYACHMGPIT(1-nal)VCQPLR(MeG) [Peptide II] (Ac-GGLYACHMGPIT[1Nal]VCQPLR[Sar]; disulfide 6-15 (inferred); not fully specified (residue 1); printed as (AcG)GLYACHMGPIT(1-nal)VCQPLR(MeG); also: homodimer, C-termini joined to the alpha- and epsilon-amino groups of a lysine linker, spacer and PEG on the linker)” as the molecule, how does the EC90 ([1]; Table 2) read?
The EC90 was 2.2 nM.

B1: Peptide I (SEQ ID NO: 2) (peptide)
peptide: Ac-GGLYACHMGPIT[1Nal]VCQPLR[Sar]K
modifications: disulfide 6-15; not fully specified (residue 21); printed as (AcG)GLYACHMGPIT(1-nal)VCQPLR(MeG)K; also: PEGylated homodimer, second copy joined via the branched linker on K21 epsilon-amine, linker, PEG size and linkage not given here
Which IC50 [9] does the source give for B1 here?
Its IC50 is 111 nM.

B2: Peptide II (SEQ ID NO: 3) (peptide)
peptide: Ac-GGLYACHMGPIT[1Nal]VCQPLR[Sar]
modifications: disulfide 6-15; not fully specified (C-terminus); printed as (AcG)GLYACHMGPIT(1-nal)VCQPLR(MeG); also: homodimer of two monomers, C-termini joined to alpha- and epsilon-amino groups of a lysine linker with spacer and PEG
For B2, which IC50 [10] is on record?
The IC50 was 0.11 nM.
